In article PMC10294653:
Where two headings read alike, the source gives them in different places.

Assays:
Assay in all cases: two-hybrid; bacterial two hybrid (BACTH): T18 and T25 adenylate cyclase fusions in E. coli BTH101 (cya mutant); beta-galactosidase assay in Miller units; cultures grown overnight at 26°C, subcultured in LB, 37°C for 30 min
[1] = target: leucine zipper (zip) domain, positive control of the bacterial two-hybrid system
[2] = target: leucine zipper (zip) domain, positive control of the bacterial two-hybrid system; remark: listed apart in the source
[3] = target: T25 fusion to the N terminus of Wzc (K. pneumoniae (strain KPPR1S))
[4] = target: T25 fusion to the N terminus of WcaJ (K. pneumoniae (strain KPPR1S))
[5] = target: T25 fusion to the N terminus of Wzb (K. pneumoniae (strain KPPR1S))

Row | Substance | beta-galactosidase activity [1] [Miller units] | beta-galactosidase activity [2] [Miller units] | beta-galactosidase activity [3] [Miller units] | beta-galactosidase activity relative to the zip-zip controls (% of the zip-zip controls) [4] | beta-galactosidase activity relative to the zip-zip controls (% of the zip-zip controls) [5]
1 | leucine zipper (zip) domain, positive control of the bacterial two-hybrid system (domain or fragment) | 1740 | 1530 |  |  | 
2 | RmpD-T18 (natural protein) |  |  | 2150 | < 10 | < 10
